Assay results reported in patent publication US20260184782A1 (TWIST BIOSCIENCE, published 2026).

T1: human TIGIT-Fc (human, UniProt Q495A1 22-141, limits assumed)
T1 construct: not shown: Fc; not described
T1 sequence (looked up): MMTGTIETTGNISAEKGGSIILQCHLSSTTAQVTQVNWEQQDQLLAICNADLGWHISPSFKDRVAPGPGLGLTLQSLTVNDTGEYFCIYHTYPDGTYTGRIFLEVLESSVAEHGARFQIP

B1: TIGIT-SC75 (Fc fusion)
VHH: EVQLVESGGGLVQPGGSLRLSCAASGFIGNYHAMGWFRQAPGKEREFVAAIRWSDGSSYYADSVKGRFTISADNSKNTAYLQMNSLKPEDTAVYYCAKWSYYGSGLYGMDVWGQGTLVTVSS
notes: VHH-Fc
B2: TIGIT-SC76 (Fc fusion)
VHH: EVQLVESGGGLVQPGGSLRLSCAASGFTFSDYAMGWFRQAPGKERELVARIGHDGSTDYADSVKGRFTISADNSKNTAYLQMNSLKPEDTAVYYCLGGLDPWGQGTLVTVSS
notes: VHH-Fc
B3: TIGIT-SC79 (Fc fusion)
VHH: EVQLVESGGGLVQPGGSLRLSCAASGSILSINTMGWFRQAPGKEREFVAAITSAGGTTYYADSVKGRFTISADNSKNTAYLQMNSLKPEDTAVYYCARWHYDILTGYYWLDSWGQGTLVTVSS
notes: VHH-Fc
B4: TIGIT-SC80 (Fc fusion)
VHH: EVQLVESGGGLVQPGGSLRLSCAASGNIPPINAMGWFRQAPGKEREFVAAINYSGGSTYYADSVKGRFTISADNSKNTAYLQMNSLKPEDTAVYYCARWHYDILTGYYWLDSWGQGTLVTVSS
notes: VHH-Fc
B5: TIGIT-SC99 (Fc fusion)
VHH: EVQLVESGGGLVQPGGSLRLSCAASGSIFSMNTMGWFRQAPGKEREFVGAINWSGGSTIYADSVKGRFTISADNSKNTAYLQMNSLKPEDTAVYYCARWDYDILTNYYWLEYWGQGTLVTVSS
notes: VHH-Fc
B6: TIGIT-SC81 (Fc fusion)
VHH: EVQLVESGGGLVQPGGSLRLSCAASGRSFKDDAMGWFRQAPGKEREFVAAISWSGDSTHYADSVKGRFTISADNSKNTAYLQMNSLKPEDTAVYYCARWVWASGTYWIDYWGQGTLVTVSS
notes: VHH-Fc
B7: TIGIT-SC85 (Fc fusion)
VHH: EVQLVESGGGLVQPGGSLRLSCAASGRTFSPYTMGWFRQAPGKEREWVAGISQSGGSTAYADSVKGRFTISADNSKNTAYLQMNSLKPEDTAVYYCARDLNAMGDAYDIWGQGTLVTVSS
notes: VHH-Fc
B8: TIGIT-SC86 (Fc fusion)
VHH: EVQLVESGGGLVQPGGSLRLSCAASGIIASDSAMGWFRQAPGKEREFVAAIRWSGKETWYADSVKGRFTISADNSKNTAYLQMNSLKPEDTAVYYCARWGGVTFGGVYPLEYWGQGTLVTVSS
notes: VHH-Fc
B9: TIGIT-SC88 (Fc fusion)
VHH: EVQLVESGGGLVQPGGSLRLSCAASGFTFSSDWMGWFRQAPGKEREFVAAINRSGHSTSYADSVKGRFTISADNSKNTAYLQMNSLKPEDTAVYYCARWGGVTFGGVYPLEYWGQGTLVTVSS
notes: VHH-Fc
B10: TIGIT-SC103 (Fc fusion)
VHH: EVQLVESGGGLVQPGGSLRLSCAASGTITSAVFMGWFRQAPGKEREFVAAISWSGGDTNYADSVKGRFTISADNSKNTAYLQMNSLKPEDTAVYYCARWGGITFGGVYPLDYWGQGTLVTVSS
notes: VHH-Fc
B11: TIGIT-SC87 (Fc fusion)
VHH: EVQLVESGGGLVQPGGSLRLSCAASGSIDTINTMGWFRQAPGKEREFVAAITPSSRTTYYVDSVKGRFTISADNSKNTAYLQMNSLKPEDTAVYYCARWGGVTFGGVYPLEYWGQGTLVTVSS
notes: VHH-Fc
B12: TIGIT-SC89 (Fc fusion)
VHH: EVQLVESGGGLVQPGGSLRLSCAASGSMSSINAMGWFRQAPGKEREFVAAINYEGDRTYYADSVKGRFTISADNSKNTAYLQMNSLKPEDTAVYYCARWTRGLVSGTYYYYMDVWGQGTLVTVSS
notes: VHH-Fc
B13: TIGIT-SC90 (Fc fusion)
VHH: EVQLVESGGGLVQPGGSLRLSCAASGDTFSSKAMGWFRQAPGKEREFVAAIRWSVSSTYYADSVKGRFTISADNSKNTAYLQMNSLKPEDTAVYYCARWTRGLVSGTYYYYMDVWGQGTLVTVSS
notes: VHH-Fc
B14: TIGIT-SC92 (Fc fusion)
VHH: EVQLVESGGGLVQPGGSLRLSCAASGSTIENYAMGWFRQAPGKEREFVAAIDWSGGSTYYADSVKGRFTISADNSKNTAYLQMNSLKPEDTAVYYCARWRSIWSGYDDYYYMDVWGQGTLVTVSS
notes: VHH-Fc
B15: TIGIT-SC91 (Fc fusion)
VHH: EVQLVESGGGLVQPGGSLRLSCAASGFTFSNYAMGWFRQAPGKEREFVAAINWNSRSTYYADSVKGRFTISADNSKNTAYLQMNSLKPEDTAVYYCARWRSIWSGYDDYYYMDVWGQGTLVTVSS
notes: VHH-Fc
B16: TIGIT-SC93 (Fc fusion)
VHH: EVQLVESGGGLVQPGGSLRLSCAASSRTVSSHAMGWFRQAPGKEREFVAAISWSGVTTYYADSVKGRFTISADNSKNTAYLQMNSLKPEDTAVYYCARWRSIWSGYDDYYYMDVWGQGTLVTVSS
notes: VHH-Fc
B17: TIGIT-SC94 (Fc fusion)
VHH: EVQLVESGGGLVQPGGSLRLSCAASGSSFSAYAMGWFRQAPGKEREFVSLINWSSGKTIYADSVKGRFTISADNSKNTAYLQMNSLKPEDTAVYYCARVRIFNHVHRPSYYFDYWGQGTLVTVSS
notes: VHH-Fc
B18: TIGIT-SC96 (Fc fusion)
VHH: EVQLVESGGGLVQPGGSLRLSCAASGMTTIGPMGWFRQAPGKEREFVAAINWSGSSTVYADSVKGRFTISADNSKNTAYLQMNSLKPEDTAVYYCVTYSAYDFRNAWGQGTLVTVSS
notes: VHH-Fc
B19: TIGIT-SC100 (Fc fusion)
VHH: EVQLVESGGGLVQPGGSLRLSCAASGRTLSDRAMGWFRQAPGKEREFVAAITDNGGSTYYADSVKGRFTISADNSKNTAYLQMNSLKPEDTAVYYCARWYSSSGDYYYMDVWGQGTLVTVSS
notes: VHH-Fc
B20: TIGIT-SC101 (Fc fusion)
VHH: EVQLVESGGGLVQPGGSLRLSCAASGRTFSSYAMGWFRQAPGKEREFVAAIDWSDGSTYYADSVKGRFTISADNSKNTAYLQMNSLKPEDTAVYYCARWYSSSGDYYYMDVWGQGTLVTVSS
notes: VHH-Fc
B21: TIGIT-SC102 (Fc fusion)
VHH: EVQLVESGGGLVQPGGSLRLSCAASGSTFSKHHAMGWFRQAPGKEREFVAAIRWSGGNTYYADSVKGRFTISADNSKNTAYLQMNSLKPEDTAVYYCARWYSSSGDYYYMDVWGQGTLVTVSS
notes: VHH-Fc
B22: TIGIT-SC104 (Fc fusion)
VHH: EVQLVESGGGLVQPGGSLRLSCAASGFTFSTYTMGWFRQAPGKEREFVAAISPSGNTYYADSVKGRFTISADNSKNTAYLQMNSLKPEDTAVYYCARWGGITFGGVYPLDYWGQGTLVTVSS
notes: VHH-Fc
B23: TIGIT-SC105 (Fc fusion)
VHH: EVQLVESGGGLVQPGGSLRLSCAASGFAFSRYGMGWFRQAPGKERELVATIGWSGSSTFYADSVKGRFTISADNSKNTAYLQMNSLKPEDTAVYYCARDGGPYYYGLDVWGQGTLVTVSS
notes: VHH-Fc
B24: TIGIT-SC133 (Fc fusion)
VHH: EVQLVESGGGLVQPGGSLRLSCAASGFTLENNMMGWFRQAPGKEREFVAAISASGTLRAYADSVKGRFTISADNSKNTAYLQMNSLKPEDTAVYYCACGRVSGAFIYFDYWGQGTLVTVSS
notes: VHH-Fc
B25: TIGIT-SC134 (Fc fusion)
VHH: EVQLVESGGGLVQPGGSLRLSCAASGFTLENNMMGWFRQAPGKEREFVAAISASGTLRAYADSVKGRFTISADNSKNTAYLQMNSLKPEDTAVYYCARWYRVNNWSPGYYYYMDVWGQGTLVTVSS
notes: VHH-Fc
B26: TIGIT-SC136 (Fc fusion)
VHH: EVQLVESGGGLVQPGGSLRLSCAASGFTLENNMMGWFRQAPGKEREFVAAISRSGTLKAYADSVKGRFTISADNSKNTAYLQMNSLKPEDTAVYYCARGGELTTFYFGYWGQGTLVTVSS
notes: VHH-Fc
B27: TIGIT-SC150 (Fc fusion)
VHH: EVQLVESGGGLVQPGGSLRLSCAASGFTLENNMMGWFRQAPGKEREFVAAISRSGTLKAYADSVKGRFTISADNSKNTAYLQVNSLKPEDTAVYYCVRVRGYSGYDCDYWGQGTLVTVSS
notes: VHH-Fc
B28: TIGIT-SC137 (Fc fusion)
VHH: EVQLVESGGGLVQPGGSLRLSCAASGFTLENNMMGWFRQAPGKEREFVAAISRSGTLKAYADSVKGRFTISADNSKNTAYLQMNSLKPEDTAVYYCSLVSGPRWYWGQGTLVTVSS
notes: VHH-Fc
B29: TIGIT-SC139 (Fc fusion)
VHH: EVQLVESGGGLVQPGGSLRLSCAASGFTLENNMMGWFRQAPGKEREFVAAISRSGTLKAYADSVKGRFTISADNSKNTAYLRMNSLKPEDTAVYYCAGLTSGGAFSYYWGQGTLVTVSS
notes: VHH-Fc
B30: TIGIT-SC140 (Fc fusion)
VHH: EVQLVESGGGLVQPGGSLRLSCAASGNTFSGGFTFDRSWMGWFRQAPGKEREWVASVLRGGYTWYADSVKGRFTISADNSKNTAYLQMNSLKPEDTAVYYCAGDRYYDFWSGPNSGDYWGQGTLVTVSS
notes: VHH-Fc
B31: TIGIT-SC141 (Fc fusion)
VHH: EVQLVESGGGLVQPGGSLRLSCAASGNAFSSSVMGWFRQAPGKEREFVAGIWRSGSLKAYADSVKGRFTISADNSKNTAYLQMNSLRPEDTAVYYCARAYVGMTTVTFDHWGQGTLVTVSS
notes: VHH-Fc
B32: TIGIT-SC142 (Fc fusion)
VHH: EVQLVESGGGLVQPGGSLRLSCAASGFSFDRWAMGWFRQAPGKEREFVAAIGWSGNLKAYADSVKGRFTISADNSKNTAYLQMNSLKPEDTAVYYCASGDGYSMDYFDPWGQGTLVTVSS
notes: VHH-Fc

Target: T1, human TIGIT-Fc
Test: CD155 competition ELISA, single point; further: test concentration or dose not given here
Description: TIGIT/CD155 inhibition of VHH-Fcs were assessed using an ELISA assay (Table 10B). Briefly, human TIGIT-Fc was coated on a plate & then incubated with VHH-Fcs and human CD155-biotin. Bound CD155-biotin was detected using a streptavidin-HRP conjugate visualized with TMB. Strong inhibitors from the single point screen were titrated to determine EC50 (Table 10C).

Binder | OD (450 nm)
B1 | 0.652 OD
B2 | 0.673 OD
B3 | 0.8 OD
B4 | 0.508 OD
B5 | 0.635 OD
B6 | 0.553 OD
B7 | 0.768 OD
B8 | 0.716 OD
B9 | 0.484 OD
B10 | 0.666 OD
B11 | 0.438 OD
B12 | 0.384 OD
B13 | 0.519 OD
B14 | 0.593 OD
B15 | 0.484 OD
B16 | 0.307 OD

Binder | OD (450 nm)
B17 | 0.513 OD
B18 | 0.677 OD
B19 | 0.692 OD
B20 | 0.394 OD
B21 | 0.311 OD
B22 | 0.701 OD
B23 | 0.959 OD
B24 | 0.284 OD
B25 | 0.845 OD
B26 | 0.571 OD
B27 | 0.445 OD
B28 | 0.306 OD
B29 | 0.51 OD
B30 | 0.708 OD
B31 | 0.633 OD
B32 | 0.69 OD
